Residue numbers refer to the chain shown, from its start. “And” between values parts separate entries of the source, which are not always exact repeats. Equal entries are not always repeated. One block for each binder: values may come before it.
Key:
[1] = molecular target: IL-R1-Fc (a fusion of IL-1RI and Fc) (UniProt P14778); assay: phage-displayed dAb: no trypsin 1 hr room temp, biopanning on 1 nM IL-R1-Fc
[2] = molecular target: IL-1R1 (UniProt P14778); assay: Receptor Binding Assay, inhibition of IL-1 binding to IL-R1 (column head says nM, cell says pM)
IL-1R1, sequence (P14778 18-332 limits assumed): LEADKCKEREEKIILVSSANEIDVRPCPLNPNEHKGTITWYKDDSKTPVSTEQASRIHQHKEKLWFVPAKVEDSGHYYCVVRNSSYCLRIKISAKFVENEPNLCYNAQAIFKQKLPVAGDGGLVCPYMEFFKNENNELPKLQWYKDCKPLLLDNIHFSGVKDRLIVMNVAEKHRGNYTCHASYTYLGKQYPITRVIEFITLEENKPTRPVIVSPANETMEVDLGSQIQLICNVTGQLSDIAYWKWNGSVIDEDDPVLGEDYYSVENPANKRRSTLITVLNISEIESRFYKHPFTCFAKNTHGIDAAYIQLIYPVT

[3] = molecular target: IL-R1-Fc (a fusion of IL-1RI and Fc) (UniProt P14778); assay: phage-displayed dAb: trypsin 10 µg/ml 1 hr room temp, then biopanning on 1 nM IL-R1-Fc
[4] = molecular target: IL-R1-Fc (a fusion of IL-1RI and Fc) (UniProt P14778); assay: phage-displayed dAb: trypsin 10 µg/ml overnight room temp, then biopanning on 1 nM IL-R1-Fc
[5] = molecular target: IL-R1-Fc (a fusion of IL-1RI and Fc) (UniProt P14778); assay: phage-displayed dAb: no trypsin overnight 37 C, biopanning on 1 nM IL-R1-Fc
[6] = molecular target: IL-R1-Fc (a fusion of IL-1RI and Fc) (UniProt P14778); assay: phage-displayed dAb: trypsin 100 µg/ml overnight room temp, then biopanning on 1 nM IL-R1-Fc
[7] = molecular target: IL-R1-Fc (a fusion of IL-1RI and Fc) (UniProt P14778); assay: phage-displayed dAb: trypsin 100 µg/ml overnight 37 C, then biopanning on 1 nM IL-R1-Fc
[8] = molecular target: IL-R1-Fc (a fusion of IL-1RI and Fc) (UniProt P14778); assay: phage-displayed dAb: trypsin 10 µg/ml overnight 37 C, then biopanning on 1 nM IL-R1-Fc
[9] = molecular target: IL-R1-Fc (a fusion of IL-1RI and Fc) (UniProt P14778); assay: phage-displayed dAb: trypsin 100 µg/ml 1 hr room temp, then biopanning on 1 nM IL-R1-Fc
[10] = molecular target: IL-R1-Fc (a fusion of IL-1RI and Fc) (UniProt P14778); assay: phage-displayed dAb: no trypsin overnight room temp, biopanning on 1 nM IL-R1-Fc
[11] = molecular target: TNFR1 on MRC-5 cells (UniProt P19438); assay: cell-based or functional assay
TNFR1 on MRC-5 cells, sequence (P19438 30-455 limits assumed): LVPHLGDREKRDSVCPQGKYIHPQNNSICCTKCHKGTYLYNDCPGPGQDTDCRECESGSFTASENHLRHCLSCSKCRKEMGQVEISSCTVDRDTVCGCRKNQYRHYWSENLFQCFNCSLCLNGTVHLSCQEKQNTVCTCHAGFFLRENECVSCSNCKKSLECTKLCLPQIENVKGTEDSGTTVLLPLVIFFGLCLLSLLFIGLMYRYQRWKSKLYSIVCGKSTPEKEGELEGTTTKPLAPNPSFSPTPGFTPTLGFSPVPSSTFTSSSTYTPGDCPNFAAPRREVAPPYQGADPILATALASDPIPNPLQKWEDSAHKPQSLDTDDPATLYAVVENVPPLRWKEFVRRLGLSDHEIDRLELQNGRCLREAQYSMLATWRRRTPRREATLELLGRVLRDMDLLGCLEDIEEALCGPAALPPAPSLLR

[12] = molecular target: human VEGF (human vascular endothelial growth factor) (human) (UniProt P15692); assay: receptor binding assay (inhibition of VEGF binding to VEGFR2)
human VEGF (human vascular endothelial growth factor) (human), sequence (P15692 other isoform, or with tags, fused parts or gaps limits assumed): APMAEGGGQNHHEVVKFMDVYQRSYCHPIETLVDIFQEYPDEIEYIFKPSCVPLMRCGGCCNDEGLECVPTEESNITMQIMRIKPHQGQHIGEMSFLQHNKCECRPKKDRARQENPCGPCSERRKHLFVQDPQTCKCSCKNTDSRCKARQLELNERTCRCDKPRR

[13] = molecular target: human VEGF (human vascular endothelial growth factor) (human) (UniProt P15692); assay: phage-displayed dAb, expt 2 (input 10^9): trypsin 100 µg/ml 1 hr 37 C 250 rpm, then capture on biotinylated rhVEGF
[14] = molecular target: human VEGF (human vascular endothelial growth factor) (human) (UniProt P15692); assay: phage-displayed dAb, expt 2 (input 10^9): trypsin 100 µg/ml 2 hr 37 C 250 rpm, then capture on biotinylated rhVEGF
[15] = molecular target: human VEGF (human vascular endothelial growth factor) (human) (UniProt P15692); assay: phage-displayed dAb, expt 2 (input 10^9): no trypsin 2 hr 37 C 250 rpm, capture on biotinylated rhVEGF
[16] = molecular target: human VEGF (human vascular endothelial growth factor) (human) (UniProt P15692); assay: phage-displayed dAb, expt 1 (input 10^10): trypsin 100 µg/ml 1 hr room temp, then capture on 50 nM biotinylated rhVEGF + streptavidin beads
[17] = molecular target: human VEGF (human vascular endothelial growth factor) (human) (UniProt P15692); assay: monoclonal phage ELISA on biotinylated hVEGF (neutravidin plate) after 100 ug/ml trypsin 1 h 37 C
[18] = molecular target: human VEGF (human vascular endothelial growth factor) (human) (UniProt P15692); assay: phage-displayed dAb, expt 1 (input 10^10): trypsin 10 µg/ml 1 hr room temp, then capture on 50 nM biotinylated rhVEGF
[19] = molecular target: human VEGF (human vascular endothelial growth factor) (human) (UniProt P15692); assay: phage-displayed dAb, expt 1 (input 10^10): no trypsin (0 µg/ml) 1 hr room temp, capture on 50 nM biotinylated rhVEGF
[20] = molecular target: human VEGF (human vascular endothelial growth factor) (human) (UniProt P15692); assay: BIAcore kinetics

IL-R1-Fc (a fusion of IL-1RI and Fc), sequence (P14778 18-336 limits assumed): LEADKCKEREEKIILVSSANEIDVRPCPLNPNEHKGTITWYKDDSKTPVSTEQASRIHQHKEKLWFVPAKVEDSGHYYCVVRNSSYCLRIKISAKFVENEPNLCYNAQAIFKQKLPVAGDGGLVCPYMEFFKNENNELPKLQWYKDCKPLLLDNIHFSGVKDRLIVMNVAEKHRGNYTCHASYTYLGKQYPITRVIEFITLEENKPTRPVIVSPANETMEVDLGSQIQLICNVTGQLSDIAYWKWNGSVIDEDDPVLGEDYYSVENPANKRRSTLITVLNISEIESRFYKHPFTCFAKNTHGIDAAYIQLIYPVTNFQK

output phage titre [1]: 6.6e+09 | IC50 [2]: 0.28 nM | output phage titre [3]: 7.2e+09 | output phage titre [4]: 7.2e+09 | output phage titre [5]: 7.2e+09 | output phage titre [6]: 2.16e+09 | output phage titre [7]: 2.04e+06 | output phage titre [8]: 3.84e+08 | output phage titre [9]: 1.8e+10 | output phage titre [10]: 7.8e+09
B1: DOM4-130-54 (protein, from a related filing)
VL: DIQMTQSPSSLSASVGDRVTITCRASQDIYLNLDWYQQKPGKAPKLLINFGSELQSGVPSRFSGSGYGTDFTLTISSLQPEDFATYYCQPSFYFPYTFGQGTKVEIKR

IC50 [2]: 0.257 nM
B2: DOM4-130-201 (protein, from a related filing)
VL: B1 VL with N49K, S77N, R108W

IC50 [2]: 0.254 nM
B3: DOM4-130-202 (protein, from a related filing)
VL: B1 VL with T22S, N49S, F83S, F94Y

ND50, MRC-5 cell-based assay (IL-8 release) [11]: 1.98 nM and 1.71 nM and 1.46 nM | ND50, MRC-5 cell-based assay (IL-8 release); sample DOM1h-131-511 (230307CE) [11]: 1.89 nM
B4: DOM1h-131-511 (protein)
VH: EVQLLESGGGLVQPGGSLRLSCAASGFTFAHETMVWVRQAPGKGLEWVSHIPPVGQDPFYADSVKGRFTISRDNSKNTLYLQMNSLRAEDTAVYYCALLPKRGPWFDYWGQGTLVTVSS

ND50, MRC-5 cell-based assay (IL-8 release); sample DOM1h-131-203 (230307CE) [11]: 2.28 nM
B5: DOM1h-131-203 (protein, from a related filing)
VH: B4 VH with L5W, V54D, F106I

ND50, MRC-5 cell-based assay (IL-8 release); sample DOM1h-131-204 (230307CE) [11]: 1.89 nM
B6: DOM1h-131-204 (protein, from a related filing)
VH: B4 VH with L5S, V54D, K101N

EC50 [12]: 10.2 nM | output phage titre [13]: 100000 | output phage titre [14]: 10000 | output phage titre [15]: 3e+08 | output phage titre [16]: 1.1e+07 | OD450 [17]: < 0.404 | output phage titre [18]: 2.4e+08 | output phage titre [19]: 7e+07 | Kd [20]: 23.6 nM
B7: DOM15-10 (protein, from a related filing)
VL: DIQMTQSPSSLSASVGDRVTITCRASQWIGPELSWYQQKPGKAPKLLIYHTSILQSGVPSRFSGSGSGTDFTLTISSLQPEDFATYYCQQYMFQPRTFGQGTKVEIRR

EC50 [12]: 3.58 nM | Kd [20]: 14.6 nM
B8: DOM15-10-11 (protein, from a related filing)
VL: B7 VL with S34R, R96M, R108G
